The source of these data is US20250241939A1, “NUCLEIC ACID-BASED DELIVERY SYSTEMS AND USES THEREOF” (Kodikaz Therapeutic Solutions, Inc., priority 2022, published 2025).

The subject of data set [1] is MM cell lines (MM1s, OPM1, RPMI). As to the kind of experiment: Cell viability: sensitivity to bortezomib after culture with plasma and ctDNA. Format: cell-based, human. The procedure: BR: Bortezomib resistant, BS: Bortezomib sensitive. Error bars indicate the standard deviation of triplicate experiments.
(§1) Cell viability: Cell viability assays were performed in 96 well, black, clear-bottom microplates. For MM cell line studies, 3×10^4 cells were cultured for 24 hours with media containing 10% human plasma of a bortezomib-resistant or-sensitive patient or a control non-cancer patient. Cells were then cultured for 24 hours with titrating concentrations of bortezomib (doses: 0, 5, 10, 15, 50 nM; Sigma). For PC cell lines viability studies, 1×10^4 cells were incubated for 24 hours with media containing plasma of a gemcitabine-resistant patient or non-cancer patient. Subsequently, titrating concentrations of gemcitabine (doses: 0, 10, 25, 50, 100, 200 μM; Sigma-Aldrich, MO) were added to the culture media and cells were then incubated for 96 hours. CellTiter-Blue Cell Viability Assay was used to evaluate cell viability according to the manufacturer's instructions (Promega). Cell viability was measured by a fluorescent protocol in an microplate reader. Experiments were performed in triplicate of 3 independent studies.

Data set [2] has as its system pancreatic cancer cell lines (MIA Paca-2 [MIA] and PANC1). As to the kind of experiment: Cell viability: sensitivity to gemcitabine after culture with patient plasma. It counts as cell-based, human. The procedure: For the corresponding DNase I-treated samples, plasma was treated with DNase I for 10 minutes. GR: Gemcitabine resistant.
Gemcitabine (GEM)-sensitive pancreatic cancer cell lines (MIA Paca-2 [MIA] and PANC1) were cultured for 24 h with DNase-treated or non-treated plasma from (GEM)-resistant (GR) patients or control plasma.
as §1

Data set [3] relates to HFF (fibroblast), DU145 (prostate cancer), and MCF10A (breast). In words: Uptake of MM2 fragments in different cell types. It counts as cell-based. The source says:
(§2) FIG. 20 provides fluorescence microcopy images evaluating uptake of fluorescently labelled synthetic DNA derived from a multiple myeloma ctDNA (MM2 (1-290), MM2 (89-290), MM2 (177-290), and MM2 (1-201), and MM2 (1-113)) by multiple myeloma/B cell lines (MM1S and RPMI) and cell lines of other cell types (HFF—fibroblast, DU145—prostate cancer, MCF10A breast).
(§3) A follow-up experiment evaluated uptake of the fragments in different cell types, with counterstaining to identify nuclei (DAPI) and cytoplasm (Texas red-phalloidin).

In data set [4] the test system is MM/B cell lines (MM1S and RPMI). As to the kind of experiment: Uptake of MM2 fragments in different cell types. Format: cell-based. Conditions: DAPI and Texas red-phalloidin counterstain.
Source text: as §2, §3

Data set [5] has as its system multiple myeloma cell line. In words: Uptake of fluorescent MM2 fragments, fluorescent microscopy. It counts as cell-based. To be noted: Fluorescein 12 dCTP labelled PCR products. The procedure:
FIG. 19 provides fluorescence microcopy images showing uptake of fluorescently labelled synthetic DNA derived from a multiple myeloma ctDNA (MM2 (1-290), MM2 (89-290), MM2 (177-290), and MM2 (1-201), and MM2 (1-113)), or a control sequence.
Fluorescein 12 dCTP from Perkin Elmer was used to label the PCR products, which were purified after the reaction.
In an initial study, fragments were generated as follows:
The fluorescent DNA sequences were incubated with multiple a myeloma cell line and uptake was evaluated by fluorescent microscopy.
The study was repeated with 5′FAM-labelled primers, with similar results.

For data set [6], the system named is MM cell lines MM1S, JK6L, and RPMI. In words: Uptake of additional MM2 fragments, fluorescent microscopy. It counts as cell-based. Conditions: Fluorescein 12 dCTP or 5′FAM labelling. The procedure: FIG. 21 provides microcopy images showing uptake of 5′ fluorescently labelled synthetic DNA fragments derived from a multiple myeloma ctDNA by MM cells (JK6L) or non-MM cells.
Additional fragments were generated to analyze further the sequence to identify a region that contributes to uptake by MM cells (e.g., a recognition sequence). The following sequences were generated with Fluorescein 12 dCTP or 5′FAM labelling:
The fluorescent DNA sequences were incubated with multiple cell lines (e.g., MM cell lines MM1S, JK6L, and RPMI, and non-MM cell lines HT1080, HCT116, and DU145) and uptake was evaluated by fluorescent microscopy. […] Specificity of uptake by MM cells was preserved as shown by a lack of uptake by HT1080 and HCT116 cells (FIG. 21).

For data set [7], the system named is MM1s (multiple myeloma) cell genome. In words: ctDNA coculture with MM1s cells, whole genome sequencing: genomic insertion sites, transposons at insertion points and SNVs (multiple myeloma). Conditions: TABLE 7, multiple myeloma co-culture. Format: cell-based, human.
Data set [8] deals with plasma cells (CD138+) and non-plasma cells (CD138−) of bone marrow. In words: Cell targeting in bone marrow samples from patients with and without multiple myeloma, flow cytometry. Format: cell-based, human. The procedure:
FIG. 10 provides illustrative flow cytometry scatterplots displaying the cell capture of AluSp, MER11, and control transposon sequence in plasma cells (CD138+) and non-plasma cells (CD138−) derived from bone marrow of multiple myeloma patients.
Data for plasma cells (CD138+) and non-plasma cells (CD138−) are separately shown.
Cell targeting of the AluSp and MER11C sequences was tested in bone marrow samples derived from patients with and without multiple myeloma.
In general terms: Flow cytometry measures light scatter and fluorescence of single cells or particles in a stream.

The test system of a further data set is MM1s and U266 cells. In words: Cell capture of several transposons in two MM cell lines at 4 hours, flow cytometry. It counts as cell-based, human. To be noted: 4 hours of culture. The procedure: The variability of cell capture of several transposons was tested in two MM cell lines at 4 hours of culture.

For the molecule `CC(C)C[C@H](NC(=O)[C@H](Cc1ccccc1)NC(=O)c1cnccn1)B(O)O` [bortezomib], the sensitivity to bortezomib entry in data set [1] (MM1s and OPM1, ctDNA of BR patient added to non-cancer patient plasma) is on record as “decreased the sensitivity”; in [1] (RPMI cells, ctDNA of BS patient added to control plasma) it was “increased sensitivity”. For the same molecule, in data set [1] (ctDNA of a BR patient added to plasma of a BR patient), the resistance to bortezomib result is reported as “further increased”.

`Nc1ccn([C@@H]2O[C@H](CO)[C@@H](O)C2(F)F)c(=O)n1` [gemcitabine]: the response to gemcitabine result in [2] (cells cultured 24 h with non-DNase-treated GR patient plasma, vs control serum) is on record as “became resistant”; in data set [2] (cells cultured with DNase-treated GR plasma), “restored the inherent sensitivity”; in data set [2] (control serum treated with DNase), “increased resistance”.

B1: MM2 (1-201): fluorescently labelled fragment of MM2 (1-290) (nucleic acid, listed as Homo sapiens)
DNA: ACCCGGCCTTGGACACGCCATTTTCAACTCCGTGGTGCGTTTTTTTTTTTTTTTTTTTTTTTTTGTAATGGAGTTTCGCTCTTGTTGCCCAGGATGGAGTGCAAGGGATCTTGGCTCACCACAGCCTCCGCCTCTTGGGTTCAAGTGATTCTTCTGCCTCAGCCTCCCAAGTAGCTGGGATTATAAGCACCCACCACCACG
modifications: fluorescent label
Turning to B1, the uptake result is reported as “not” in [3], “observed” in [4] and “observed” in data set [5].

B2: MM2 (88-168): fluorescently labelled fragment of MM2 (nucleic acid, listed as Homo sapiens)
DNA: CCAGGATGGAGTGCAAGGGATCTTGGCTCACCACAGCCTCCGCCTCTTGGGTTCAAGTGATTCTTCTGCCTCAGCCTCCC
modifications: DNA, all phosphodiester, methylation of C not given here; fluorescein label via fluorescein-12-dCTP or 5' FAM primer
Take B2: the “uptake by MM cells” value in [6] was “sufficient for uptake”.

B3: CY5-MER11C: synthesized MM retrotransposon MER11C, labelled with CY5 (nucleic acid, listed as Homo sapiens)
DNA: TATCGAAAATTCACCCCCGATATTCACGTAGGTTCTTTTCTATTTTCCCTAAGCGTCGGCAGGTTTGAGAAATAAAGGGACAGAGTACAAAAGAGAGAAATTTTAAAGCTGGGCGTCCGGGGGAGACATCACATGTTGGTAGGTTCCATGATGCCCCACAAGCCGTAAAAACCAGCAAGTTTTTATTAGTGATTTTCAAAAGGGGAGGGAGTGTACGAATAGGTGTGGGTCACAGAGATCACGTGCTTCACAAGGTAATAGAATATCACAAGGCAAATGGAGGCAGGGCGAGATCACAGGACCACAGGACCGGGGTGAAATTAAAATTGCTAATGAAGTTTTGGGCACCATTGTCATTGATAACATCTTATCAGGAGACAGGGTTTGAGAGACAACCGGTCTGACCAAAATTTATTAGGTGGGAATTTCCTCGTCCTAATAAGCCTGGGAGTGCTATGGGAGACTGGGGCTTATTTCATCCCGTAGAGGCAACCATAAAAGACAGGCCCAAGCGGCCATTTAGAGCCTCCCAGGACATTCTCTTTCTCAGGGTGTTCCTTGCTGAGAAAAAGAATTCAGATATTTCTCCATTTGCTTTTGAAAGAAGAGAAATATGGCTCTGTTCCCGGCTCACGGCGCAGATTTAAGGTTATCTCCTTTTCCCTGAACAATTGCTGTTATCCTGTTCTTTTTTCAAGGTGCCCAGATTTCATATTGTTCAAACACACATGCTTACAATTTGTGCAGTTAAGCAATATCACAGGGTCCTGAGGGACATACATCCTCCTCAGCTGACAGGATTAAGAGATTAAAGTAAAGACAGGCATAGGAAATCACAAGGGTATTGATTGGGGAAGTGATAAGTGTCCATGAAATCTTCACAATTTATGTTTAGAGATTGCAGTAAAGACAGGCATAAGAAATTATAAAAGTATTAATTTGGGGAACTAATAAATGTCCATGAAATCTTCACAATCCACGTTCTTCTGCCATGGCTTCAGCCGGTCCCTCCGTTCGGGGTCCCTGACTTCCCGCAACA
modifications: CY5 label
On to B3, for which the blast orientation entry in data set [7] (BLAST alignment orientation) is listed as “Plus/Plus”. The blast chr entry in data set [7] (chromosome with the longest result for BLAST analysis of the full contig) is recorded as “chr14”. For the same molecule, in [7] (distance between insertion and the transposon (0 if they overlap)), the Distance from insertion came to 0. Moreover, the “Location relative to insertion” value in data set [7] (location of the transposon relative to the insertion on the contig) is “intersect”. In addition, the “signal in plasma cells of MM patients vs non-MM CD138 (−) cells compartment” value in data set [8] (14 hours) was “higher levels of signal”. Besides, the “CY5 positive plasma cells” value in [8] (14 hours of culture, vs control sequence or PC specific sequence) is recorded as “more CY5 positive plasma cells”. The cell capture result in the data set with MM1s and U266 cells was “higher than that of the other transposons, the control sequence, and PC transposons”.

B4: MM2 (1-113): fluorescently labelled fragment of MM2 (1-290) (nucleic acid, listed as Homo sapiens)
DNA: ACCCGGCCTTGGACACGCCATTTTCAACTCCGTGGTGCGTTTTTTTTTTTTTTTTTTTTTTTTTGTAATGGAGTTTCGCTCTTGTTGCCCAGGATGGAGTGCAAGGGATCTTG
modifications: DNA, all phosphodiester, methylation of C not given here; fluorescein label via fluorescein-12-dCTP or 5' FAM primer
In the case of B4, the uptake entry in data set [4] and in [5] was “not” throughout.

B5: MM2 (177-290): fluorescently labelled fragment of MM2 (1-290) (nucleic acid, listed as Homo sapiens)
DNA: GGGATTATAAGCACCCACCACCACGCCCAGCTAATTTTGTATTTTTTAGAAGAGATGGAGTTTCTCCAGTTGGCCAGGATGGTCTGTATATCCTGACCTCATGATCTGCCCACC
modifications: DNA, all phosphodiester, methylation of C not given here; fluorescein label via fluorescein-12-dCTP or 5' FAM primer
As to B5, the results for the uptake result in [3], in data set [4] and in data set [5] were “not”, “observed” and “observed”, respectively.
